Laboratory results as given in patent US10654893B2, “Self-assembling peptide compositions” (3-D MATRIX, LTD., priority 2014, dated 2020).

Assay: Mixing of RADA16 with DMEM and centrifugation
Format: physicochemical
Description: When the mixture was centrifuged at 2500 rpm for 5 min, phase separation of cloudy RADA16 (SEQ ID NO:1) precipitated from the mixture. In this case, the peptide assemblies (i.e. initially were formed via hydrophobic interactions) were likely broken down during the mixing process. Attractive charge-charge interactions were dominant over hydrophobic interactions, which induce formation of random intra- and inter-molecular aggregates. The phase separation is illustrated in FIG. 7.

Arg-Ala-Asp-Ala-Arg-Ala-Asp-Ala-Arg-Ala-Asp-Ala-Arg-Ala-Asp-Ala [RADA16]
Appearance after mixing with DMEM (0.5 mL of DMEM mixed with 0.5 mL of 2% RADA16): cloudy and runny emulsions
Phase behaviour after centrifugation of the DMEM mixture (centrifuged at 2500 rpm for 5 min): precipitated
